Laboratory results published in patent US20250099504A1 (INSTITUTE OF HEMATOLOGY AND BLOOD DISEASES HOSPITAL CHINESE …, published 2025).

Target: T1, human CD7 (human, UniProt P09564 26-240)
T1 construct: whole, on cells; also called CD7 antigen; CD7 on the surface of Jurkat, Molt4, CCRF-CEM and Hut78 cells
T1 sequence (looked up): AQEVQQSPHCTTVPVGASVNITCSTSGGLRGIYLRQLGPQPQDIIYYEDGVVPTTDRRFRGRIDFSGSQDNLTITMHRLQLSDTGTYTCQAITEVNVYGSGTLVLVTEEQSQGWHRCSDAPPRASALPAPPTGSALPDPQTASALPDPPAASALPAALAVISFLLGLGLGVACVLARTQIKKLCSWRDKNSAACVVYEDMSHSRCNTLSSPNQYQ
Experiment: FACS on Jurkat, Molt4, CEM and Hut78 cells that highly express human CD7; antibody at 0.15 µg/100 µl
Description: Binding of the monoclonal antibody HIT7 in Example 1 and the commercialized CD7-6B7 antibody (Biolegend, PE/Cyanine7 anti-human CD7 antibody, clone number CD7-6B7) to CD7 on the surface of Jurkat, Molt4, CCRF-CEM, and Hut78 cells that highly expressed human CD7 was tested by FACS: The antibody was incubated at a concentration of 0.15 μg/100 μl with 2×10⁵ Jurkat, Molt4, CEM, and Hut78 cells respectively at 4° C. in dark for 30 minutes, washed twice with PBS, resuspended by 100 μl, and loaded for FACS test.

binding result: binds
B1: monoclonal antibody HIT7 (antibody, V domains shown)
VH: QVQLQESGPGLVKPSQTVSLTCTVTGISITTGNYRWSWIRQFPGNKLEWIGYIYYSGIITYNPSRTSRTTITRDISKNQFFLEMNSLTAEDTATYYCARERGIYYDSLWYFDVWGAGTTVTVSS
VL: DIVLTQSPASLAVSLGQRATISCRASKSVSASGYSYMHWYQQKPGQPPKLLIYLASNLESGVPARFSGSGSGTDFTLNIHPVEEEDAVTYYCQHSRELPYTFGGGTKLEIKR
notes: also called CD7-HIT7 monoclonal antibody; mouse anti-human CD7 monoclonal antibody
